Assays:
[1] = Pig PK (plasma ELISA); assay type: in vivo; conditions: weaner pigs; 1.2 mg/kg IV and SC
Description: Porcine CSF-1 Fc-fusion plasma levels were detected using an in-house developed conventional sandwich ELISA utilizing commercially available antibodies. Capture antibody was Abcam ab9693 (0.3 μg/mL) and detection antibody was Rabbit anti-pig IgG (Fc) biotinylated Alpha Diagnostic 90440 (1:5000 dilution). Standard protein was generated and purified in-house (lot 2/24/11 JAS). Standards were added to each plate along with the samples resulting in an 11 point standard range of 2700 ng/mL to […]. This allowed for quantitation of each sample to a standard curve on every assay plate. Assay detection was done using Pierce High Sensitivity Streptavidin-HRP (1:10,000 dilution) and TMB Microwell Peroxidase Substrate System solution (KPL).
Weaner age barrows (<14 kg) were assigned to three treatment groups receiving a single intravenous (IV) or subcutaneous (SC) dose as follows. Three pigs received 0.5 mg/kg CSF-1 non-fusion dosed SC. Two pigs received 1.2 mg/kg CSF-1:Fc fusion dosed IV. Two pigs received 1.2 mg/kg CSF-1:Fc dosed SC. One ml plasma samples were obtained via the V. jugularis in EDTA anticoagulant tubes and placed on ice until centrifuged. The plasma was transferred to sterile tubes stored at ≤−10° C. until analysis. Serial plasma samples were obtained from each animal at pre-dose and 5 minutes, 30 minutes, 1 hour, 2 hours, 4 hours, 6 hours, 8, hours, 24 hours, 48 hours, and 72 hours post-dose. CSF-1 and CSF-1:Fc fusion protein levels were quantitated in plasma using ELISA assays.

[2] = tested on: csf1r-EGFP (MacGreen) mice; experiment: Fc-CSF-1 injected subcutaneously into csf1r-EGFP mice on 4 days, sacrificed on the 5th day; assay type: in vivo, mouse
Description: Mice were injected with Fc-CSF-1 subcutaneously on each of 4 days and sacrificed on the 5th day. The mice were csf1r-EGFP (MacGreen) mice on the C57BI/6 background. Tissue processing and immunohistochemistry were carried out as described in (Alikhan et al Am J. Pathol. 179, 1243-1256, 2011 and Macdonald et al Blood. 116, 3955-3963, 2010). A comparison of the effect of recombinant pig CSF-1 or Fc-CSF-1 on the proliferation of mouse bone marrow cells or the Ba/F3 CS1R reporter cell line using the assay described in Gow et al Cytokine.

[3] = 1 mg/kg, whole group or segregated for male or female

B1: Fc-CSF-1: active fragment of porcine CSF-1 (SEQ ID NO:1) linked to the hinge-CH3 region of porcine IgG1a (SEQ ID NO:2) (protein, listed as Sus scrofa)
chain: SENCSHMIGDGHLKVLQQLIDSQMETSCQIAFEFVDQEQLTDPVCYLKKAFLQVQDILDETMRFRDNTPNANVIVQLQELSLRLNSCFTKDYEEQDKACVRTFYETPLQLLEKIKNVFNETKNLLKKDWNIFSKNCNNSFAKCSSQHERQPEGRGTKTKPPCPICPGCEVAGPSVFIFPPKPKDTLMISQTPEVTCVVVDVSKEHAEVQFSWYVDGVEVHTAETRPKEEQFNSTYRVVSVLPIQHQDWLKGKEFKCKVNNVDLPAPITRTISKAIGQSREPQVYTLPPPAEELSRSKVTVTCLVIGFYPPDIHVEWKSNGQPEPEGNYRTTPPQQDVDGTFFLYSKLAVDKARWDHGETFECAVMHEALHNHYTQKSISKTQGK
[1]
  plasma concentrations relative to unmodified CSF-1: 100 fold
  time plasma level remains elevated: up to 72 hours
[2]; 0.1 mg/kg
  body weight, dose response curve: detectable activity
[2]; 1 mg/kg
  total body weight: clearly increased total body weight
  total liver weight: significantly increased
  weight of the spleen: almost doubled
[2]; [3]
  weight of the kidney: no effect
  weight of the lung: no effect
[2]; blood
  segmented neutrophil counts: increases
  total lymphocytes: no effect
[2]; blood, both sexes
  total blood monocyte count: elevates
  white blood cell count: elevates
[2]; growth plate, zone of resorption and shaft, data not shown
  bone resorbing osteoclasts in bone: increase
[2]; liver, Affymetrix microarrays
  increase in abundance of macrophage-specific genes (csf1r, emr1 (F4/80)): 4-8 fold
  induction of classical inflammatory genes such as TNF-a, IL-6 or IL-1: no evidence of induction
[2]; liver, proliferating cells identified as hepatocytes
  cell proliferation in liver, PCNA immunostaining: extensive cell proliferation
[2]; liver, vs PBS control
  macrophage numbers in liver, F4/80 immunostaining: large increase in macrophage numbers
[2]; spleen, treated vs control
  numbers of macrophages in the spleen, csf1r-EGFP reporter fluorescence: greatly increased fluorescence
[2]; spleen, vs PBS control
  macrophage numbers and F4/80 intensity in spleen, immunostaining: large increase in macrophage numbers and also intensity of F4/80

— patent US20180112193A1, “CSF1 THERAPEUTICS” (University Court Of The University Of Edinburgh, priority 2013, published 2018)
